# From US20200199250A1 (KYMAB, published 2020)
# B1: IXAX-1280.0999.0325 (bispecific antibody, human IgG4 S228P, lambda)
# heavy 1: EVQLVESGGGFVQPGGSLRLSCAVSGFRFNSYWMSWVRQAPGKGLEWVANINQDGSRKFYVASVKGRFTMSRDNAKKSVYVQMNSLRAEDTAVYYCAREGYSSIKYYGMDVWGQGTTVTVSSASTKGPSVFPLAPCSRSTSESTAALGCLVKDYFPEPVTVSWNSGALTSGVHTFPAVLQSSGLYSLSSVVTVPSSSLGTQTYTCNVDHKPSNTKVDKRVESKYGPPCPPCPAPEFLGGPSVFLFPPKPKDTLMISRTPEVTCVVVDVSQEDPEVQFNWYVDGVEVHNAKTKPREEQYNSTYRVVSVLTVLHQDWLNGKEYKCKVSNKGLPSSIEKTISKAKGQPREPQVYTLPPSQEEMTKNQVSLTCLVKGFYPSDIAVEWESNGQPENNYKTTPPVLDSDGSFFLYSKLTVDKSRWQEGNVFSCSVMHEALHNHYTQESLSLSP
# heavy 2: QVQLIQSGAKVKKPGASVKVSCKASRYKFTSYYMHWVRQAPGQGLEWMGIINPKSGSTSYAQKFQGRVTMTRDTSTSTVYMELSSLRSEDTAVYYCARDGYGSFSRLIQLWGQGTLVTVSSASTKGPSVFPLAPCSRSTSESTAALGCLVKDYFPEPVTVSWNSGALTSGVHTFPAVLQSSGLYSLSSVVTVPSSSLGTQTYTCNVDHKPSNTKVDKRVESKYGPPCPPCPAPEFLGGPSVFLFPPKPKDTLMISRTPEVTCVVVDVSQEDPEVQFNWYVDGVEVHNAKTKPREEQYNSTYRVVSVLTVLHQDWLNGKEYKCKVSNKGLPSSIEKTISKAKGQPREPQVYTLPPSQKEMTKNQVSLTCLVKGFYPSDIAVEWESNGQPENNYKTTPPVLDSDGSFFLYSKLTVDKSRWQEGNVFSCSVMHEALHNHYTQKSLSLSP
# light: YVLTQPPSVSVAPGETARITCGGDNIGRKSVYWYQQKSGQAPVLVIYYDSDRPSGIPERFSGSNSGNTATLTISRVEAGDEADYYCQVWDGSSDHWVFGGGTKLTVLGQPKAAPSVTLFPPSSEELQANKATLVCLISDFYPGAVTVAWKADSSPVKAGVETTTPSKQSNNKYAASSYLSLTPEQWKSHKSYSCQVTHEGSTVEKTVAPTECS
# Biological target: human factor X (human, UniProt P00742 41-179; P00742 183-488)
# Experiment: cell-based or functional assay
# human factor X, sequence (P00742 41-179, chain 1 of 2): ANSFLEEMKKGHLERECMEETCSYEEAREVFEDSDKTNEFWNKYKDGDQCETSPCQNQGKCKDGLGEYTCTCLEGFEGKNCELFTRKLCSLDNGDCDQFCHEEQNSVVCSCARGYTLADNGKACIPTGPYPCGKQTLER
# human factor X, sequence (P00742 183-488, chain 2 of 2): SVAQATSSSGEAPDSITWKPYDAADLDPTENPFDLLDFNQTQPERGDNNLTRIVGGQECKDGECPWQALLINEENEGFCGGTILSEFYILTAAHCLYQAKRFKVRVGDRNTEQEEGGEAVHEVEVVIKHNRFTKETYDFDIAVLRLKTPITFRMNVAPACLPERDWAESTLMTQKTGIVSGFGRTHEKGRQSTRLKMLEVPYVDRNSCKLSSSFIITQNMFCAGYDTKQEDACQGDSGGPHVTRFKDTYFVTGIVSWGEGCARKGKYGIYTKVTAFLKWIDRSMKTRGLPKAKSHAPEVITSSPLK
binder,measurement,value
B1,"EC50, Hyphen chromogenic FVIII mimetic activity assay (FXa generation with added FX and FIXa in diluted FVIII deficient plasma; OD405)",5.92 nM
